Laboratory results taken from article PMC3084762, “Distinct Properties of Hexameric but Functionally Conserved Mycobacterium tuberculosis Transcription-Repair Coupling Factor” (PLoS ONE, 2011).

B1: Mycobacterium tuberculosis Mfd (transcription-repair coupling factor), full length, His-tagged (natural protein)
chain: MTAPGPACSDTPIAGLVELALSAPTFQQLMQRAGGRPDELTLIAPASARLLVASALARQGPLLVVTATGREADDLAAELRGVFGDAVALLPSWETLPHERLSPGVDTVGTRLMALRRLAHPDDAQLGPPLGVVVTSVRSLLQPMTPQLGMMEPLTLTVGDESPFDGVVARLVELAYTRVDMVGRRGEFAVRGGILDIFAPTAEHPVRVEFWGDEITEMRMFSVADQRSIPEIDIHTLVAFACRELLLSEDVRARAAQLAARHPAAESTVTGSASDMLAKLAEGIAVDGMEAVLPVLWSDGHALLTDQLPDGTPVLVCDPEKVRTRAADLIRTGREFLEASWSVAALGTAENQAPVDVEQLGGSGFVELDQVRAAAARTGHPWWTLSQLSDESAIELDVRAAPSARGHQRDIDEIFAMLRAHIATGGYAALVAPGTGTAHRVVERLSESDTPAGMLDPGQAPKPGVVGVLQGPLRDGVIIPGANLVVITETDLTGSRVSAAEGKRLAAKRRNIVDPLALTAGDLVVHDQHGIGRFVEMVERTVGGARREYLVLEYASAKRGGGAKNTDKLYVPMDSLDQLSRYVGGQAPALSRLGGSDWANTKTKARRAVREIAGELVSLYAKRQASPGHAFSPDTPWQAELEDAFGFTETVDQLTAIEEVKADMEKPIPMDRVICGDVGYGKTEIAVRAAFKAVQDGKQVAVLVPTTLLADQHLQTFGERMSGFPVTIKGLSRFTDAAESRAVIDGLADGSVDIVIGTHRLLQTGVRWKDLGLVVVDEEQRFGVEHKEHIKSLRTHVDVLTMSATPIPRTLEMSLAGIREMSTILTPPEERYPVLTYVGPHDDKQIAAALRRELLRDGQAFYVHNRVSSIDAAAARVRELVPEARVVVAHGQMPEDLLETTVQRFWNREHDILVCTTIVETGLDISNANTLIVERADTFGLSQLHQLRGRVGRSRERGYAYFLYPPQVPLTETAYDRLATIAQNNELGAGMAVALKDLEIRGAGNVLGIEQSGHVAGVGFDLYVRLVGEALETYRDAYRAAADGQTVRTAEEPKDVRIDLPVDAHLPPDYIASDRLRLEGYRRLAAASSDREVAAVVDELTDRYGALPEPARRLAAVARLRLLCRGSGITDVTAASAATVRLSPLTLPDSAQVRLKRMYPGAHYRATTATVQVPIPRAGGLGAPRIRDVELVQMVADLITALAGKPRQHIGITNPSPPGEDGRGRNTTIKERQP
notes: also called MtbMfd; His-tagged MtbMfd; not shown: His tag, N-terminal, kept
B2: purified untagged or native MtbMfd (natural protein)
chain: MTAPGPACSDTPIAGLVELALSAPTFQQLMQRAGGRPDELTLIAPASARLLVASALARQGPLLVVTATGREADDLAAELRGVFGDAVALLPSWETLPHERLSPGVDTVGTRLMALRRLAHPDDAQLGPPLGVVVTSVRSLLQPMTPQLGMMEPLTLTVGDESPFDGVVARLVELAYTRVDMVGRRGEFAVRGGILDIFAPTAEHPVRVEFWGDEITEMRMFSVADQRSIPEIDIHTLVAFACRELLLSEDVRARAAQLAARHPAAESTVTGSASDMLAKLAEGIAVDGMEAVLPVLWSDGHALLTDQLPDGTPVLVCDPEKVRTRAADLIRTGREFLEASWSVAALGTAENQAPVDVEQLGGSGFVELDQVRAAAARTGHPWWTLSQLSDESAIELDVRAAPSARGHQRDIDEIFAMLRAHIATGGYAALVAPGTGTAHRVVERLSESDTPAGMLDPGQAPKPGVVGVLQGPLRDGVIIPGANLVVITETDLTGSRVSAAEGKRLAAKRRNIVDPLALTAGDLVVHDQHGIGRFVEMVERTVGGARREYLVLEYASAKRGGGAKNTDKLYVPMDSLDQLSRYVGGQAPALSRLGGSDWANTKTKARRAVREIAGELVSLYAKRQASPGHAFSPDTPWQAELEDAFGFTETVDQLTAIEEVKADMEKPIPMDRVICGDVGYGKTEIAVRAAFKAVQDGKQVAVLVPTTLLADQHLQTFGERMSGFPVTIKGLSRFTDAAESRAVIDGLADGSVDIVIGTHRLLQTGVRWKDLGLVVVDEEQRFGVEHKEHIKSLRTHVDVLTMSATPIPRTLEMSLAGIREMSTILTPPEERYPVLTYVGPHDDKQIAAALRRELLRDGQAFYVHNRVSSIDAAAARVRELVPEARVVVAHGQMPEDLLETTVQRFWNREHDILVCTTIVETGLDISNANTLIVERADTFGLSQLHQLRGRVGRSRERGYAYFLYPPQVPLTETAYDRLATIAQNNELGAGMAVALKDLEIRGAGNVLGIEQSGHVAGVGFDLYVRLVGEALETYRDAYRAAADGQTVRTAEEPKDVRIDLPVDAHLPPDYIASDRLRLEGYRRLAAASSDREVAAVVDELTDRYGALPEPARRLAAVARLRLLCRGSGITDVTAASAATVRLSPLTLPDSAQVRLKRMYPGAHYRATTATVQVPIPRAGGLGAPRIRDVELVQMVADLITALAGKPRQHIGITNPSPPGEDGRGRNTTIKERQP
notes: also called untagged MtbMfd
B3: MtbMfd, endogenous in M. tuberculosis H37Ra cell lysate (natural protein)
chain: MTAPGPACSDTPIAGLVELALSAPTFQQLMQRAGGRPDELTLIAPASARLLVASALARQGPLLVVTATGREADDLAAELRGVFGDAVALLPSWETLPHERLSPGVDTVGTRLMALRRLAHPDDAQLGPPLGVVVTSVRSLLQPMTPQLGMMEPLTLTVGDESPFDGVVARLVELAYTRVDMVGRRGEFAVRGGILDIFAPTAEHPVRVEFWGDEITEMRMFSVADQRSIPEIDIHTLVAFACRELLLSEDVRARAAQLAARHPAAESTVTGSASDMLAKLAEGIAVDGMEAVLPVLWSDGHALLTDQLPDGTPVLVCDPEKVRTRAADLIRTGREFLEASWSVAALGTAENQAPVDVEQLGGSGFVELDQVRAAAARTGHPWWTLSQLSDESAIELDVRAAPSARGHQRDIDEIFAMLRAHIATGGYAALVAPGTGTAHRVVERLSESDTPAGMLDPGQAPKPGVVGVLQGPLRDGVIIPGANLVVITETDLTGSRVSAAEGKRLAAKRRNIVDPLALTAGDLVVHDQHGIGRFVEMVERTVGGARREYLVLEYASAKRGGGAKNTDKLYVPMDSLDQLSRYVGGQAPALSRLGGSDWANTKTKARRAVREIAGELVSLYAKRQASPGHAFSPDTPWQAELEDAFGFTETVDQLTAIEEVKADMEKPIPMDRVICGDVGYGKTEIAVRAAFKAVQDGKQVAVLVPTTLLADQHLQTFGERMSGFPVTIKGLSRFTDAAESRAVIDGLADGSVDIVIGTHRLLQTGVRWKDLGLVVVDEEQRFGVEHKEHIKSLRTHVDVLTMSATPIPRTLEMSLAGIREMSTILTPPEERYPVLTYVGPHDDKQIAAALRRELLRDGQAFYVHNRVSSIDAAAARVRELVPEARVVVAHGQMPEDLLETTVQRFWNREHDILVCTTIVETGLDISNANTLIVERADTFGLSQLHQLRGRVGRSRERGYAYFLYPPQVPLTETAYDRLATIAQNNELGAGMAVALKDLEIRGAGNVLGIEQSGHVAGVGFDLYVRLVGEALETYRDAYRAAADGQTVRTAEEPKDVRIDLPVDAHLPPDYIASDRLRLEGYRRLAAASSDREVAAVVDELTDRYGALPEPARRLAAVARLRLLCRGSGITDVTAASAATVRLSPLTLPDSAQVRLKRMYPGAHYRATTATVQVPIPRAGGLGAPRIRDVELVQMVADLITALAGKPRQHIGITNPSPPGEDGRGRNTTIKERQP

Tests used:
NTD of MtbMfd = molecular target: T1, NTD of MtbMfd (Mycobacterium tuberculosis, UniProt P9WMQ5)
T1 construct: gene mfd

SEC = molecular target: the molecule itself; test: SEC
dynamic light scattering = molecular target: the molecule itself; test: dynamic light scattering

Row | Molecule | Ksv (NTD of MtbMfd) [µM] | stoichiometry N (SEC) | stoichiometry N (dynamic light scattering)
1 | Nc1ncnc2c1ncn2[C@@H]1O[C@H](COP(=O)(O)OP(=O)(O)OP(=O)(O)O)[C@@H](O)[C@H]1O [ATP] | 526 |  | 
2 | B1 |  | 6 | ~6
3 | B2 |  | 6 | 
4 | B3 |  | 6 | 
